We go through one molecule from publication PMC3335734.

Assay [1] has as its target T1, FliM-YFP (E. coli) (UniProt P06974).
T1 sequence: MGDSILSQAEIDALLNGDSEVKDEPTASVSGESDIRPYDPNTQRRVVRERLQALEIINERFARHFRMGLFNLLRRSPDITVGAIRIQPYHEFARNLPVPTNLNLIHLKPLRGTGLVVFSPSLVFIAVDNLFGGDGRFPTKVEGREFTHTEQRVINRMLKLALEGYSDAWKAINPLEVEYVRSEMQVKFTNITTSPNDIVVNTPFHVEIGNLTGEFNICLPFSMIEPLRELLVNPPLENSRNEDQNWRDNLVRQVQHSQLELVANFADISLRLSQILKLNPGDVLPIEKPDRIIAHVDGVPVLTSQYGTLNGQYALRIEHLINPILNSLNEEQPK

Assay [2] deals with T2, wild-type FliM (E. coli) (UniProt P06974).
T2 sequence: T1 sequence

B1: CheY-P (natural protein)
chain: MADKELKFLVVDDFSTMRRIVRNLLKELGFNNVEEAEDGVDALNKLQAGGYGFVISDWNMPNMDGLELLKTIRADGAMSALPVLMVTAEAKKENIIAAAQAGASGYVVKPFTAATLEEKLNKIFEKLGM
modifications: phosphorylated (CheY-P); residue not given
In the case of B1, in assay [1], the CW bias of motors, bead assay, cheR cheB cells expressing FliM-YFP was determined as 61%; the speed of motors, bead assay, cheR cheB cells expressing FliM-YFP amounted to 50.4 Hz; the switching rate of motors, bead assay, cheR cheB cells expressing FliM-YFP was found to be 3.8 s⁻¹. Moreover, in assay [2], the CW bias of motors, bead assay, cheR cheB cells expressing wild-type FliM came to 58%; the speed of motors, bead assay, cheR cheB cells expressing wild-type FliM was determined as 51.5 Hz; the switching rate of motors, bead assay, cheR cheB cells expressing wild-type FliM is 3.4 s⁻¹.
